Measured values taken from patent publication US20250313641A1.

Molecular target: cynomolgus monkey IL-2 receptor (IL-2R) on cyno PBMC subsets (cynomolgus monkey) (UniProt Q38J85)
Test: cell-based or functional assay

Sequence of cynomolgus monkey IL-2 receptor (IL-2R) on cyno PBMC subsets (cynomolgus monkey) (Q38J85 27-551, chain 1 of 2): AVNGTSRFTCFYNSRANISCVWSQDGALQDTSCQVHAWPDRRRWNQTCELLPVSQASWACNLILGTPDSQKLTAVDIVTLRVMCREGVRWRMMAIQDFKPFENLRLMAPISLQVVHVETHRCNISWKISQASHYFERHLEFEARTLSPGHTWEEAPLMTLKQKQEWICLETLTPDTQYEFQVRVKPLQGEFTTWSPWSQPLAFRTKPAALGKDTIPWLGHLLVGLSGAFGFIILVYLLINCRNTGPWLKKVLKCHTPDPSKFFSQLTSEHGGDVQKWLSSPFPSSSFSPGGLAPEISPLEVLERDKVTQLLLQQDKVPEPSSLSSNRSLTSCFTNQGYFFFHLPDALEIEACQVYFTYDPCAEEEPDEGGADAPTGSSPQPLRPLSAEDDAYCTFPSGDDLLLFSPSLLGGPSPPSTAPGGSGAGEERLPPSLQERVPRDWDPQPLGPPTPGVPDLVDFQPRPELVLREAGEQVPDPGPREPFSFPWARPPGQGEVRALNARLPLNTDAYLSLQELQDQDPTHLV
Sequence of cynomolgus monkey IL-2 receptor (IL-2R) on cyno PBMC subsets (cynomolgus monkey) (chain, as listed by the source, chain 2 of 2): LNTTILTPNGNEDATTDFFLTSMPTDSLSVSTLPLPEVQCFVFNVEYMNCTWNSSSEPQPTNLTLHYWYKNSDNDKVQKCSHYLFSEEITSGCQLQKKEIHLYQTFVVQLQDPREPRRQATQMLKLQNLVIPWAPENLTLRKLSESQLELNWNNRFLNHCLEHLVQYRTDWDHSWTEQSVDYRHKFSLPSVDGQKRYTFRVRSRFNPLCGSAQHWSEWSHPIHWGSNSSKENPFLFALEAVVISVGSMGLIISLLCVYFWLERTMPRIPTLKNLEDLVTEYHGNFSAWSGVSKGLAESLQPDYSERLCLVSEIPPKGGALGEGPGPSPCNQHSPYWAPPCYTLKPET

Substance: Recombinant human IL-2 (from UniProt P60568 21-153) (ligand)
- Ki67 (Cyno) EC50 [nM], CD4^+ T cells: 0.01 nM
- Ki67 (Cyno) EC50 [nM], CD8^+ T cells: 0.05 nM
- Ki67 (Cyno) EC50 [nM], T-regs: 0.009 nM
- Ki67 (Cyno) Emax (%), CD4^+ T cells: 90%
- Ki67 (Cyno) Emax (%), CD8^+ T cells: 88%
- Ki67 (Cyno) Emax (%), NK cells: 92%
- Ki67 (Cyno) Emax (%), T-regs: 69%
